pKd: −log10 of the molar value.
Columns and labels:
[1] = molecular target: GST-hTEAD1(209–426) (human) (UniProt P28347); assay: not stated; values of Supplementary Table 1; the method is not given
[2] = molecular target: mouse TEAD4(210–427), as purified (SPR) (mouse) (UniProt Q62296); assay: as above
Sequence of mouse TEAD4(210–427), as purified (SPR) (mouse) (Q62296 210-427): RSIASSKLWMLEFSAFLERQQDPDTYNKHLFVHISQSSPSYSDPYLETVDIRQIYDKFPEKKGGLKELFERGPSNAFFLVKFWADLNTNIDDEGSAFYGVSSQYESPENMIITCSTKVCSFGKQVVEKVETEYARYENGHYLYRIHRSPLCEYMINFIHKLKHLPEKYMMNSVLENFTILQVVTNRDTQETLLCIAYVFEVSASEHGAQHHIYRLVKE

- pKd [1]: 4.77
- pKd [2]: 4.92
Substance: VGL4 two-helix motif peptide with K250 varied to alanine (from UniProt Q80V24 203-256)
